Assay results: paper PMC10400029, “Bicarbonate activation of the monomeric photosystem II-PsbS/Psb27 complex” (Plant Physiology, 2023)

Assays:
[1] = biological target: photosystem II monomer core complex (PSIIm), His6-tagged on PsbE (N. tabacum | N. tabacum (endogenous in tobacco thylakoids)) (UniProt P69384)
[2] = biological target: T1, PSIIm-S/27 (monomeric photosystem II-PsbS/Psb27 complex) (Nicotiana tabacum, UniProt P69556+P69686); assay: flash-induced chlorophyll fluorescence decay; format: biochemical; settings: 10 µM DCMU, 15 °C (also 20 °C), pH 6.5; QB site, blocks electron transfer from QA
T1 construct: gene psbA; native PSII core monomer from stromal lamellae/grana margins; His6 tag at 5' end of psbE; beta-DDM; PsbS and Psb27 quasi-stoichiometric; with Photosystem II CP47 reaction center protein; Photosystem II CP43 reaction center protein; Cytochrome b559 subunit alpha; Cytochrome b559 subunit beta; Photosystem II 22 kDa protein, chloroplastic; Photosystem II repair protein PSB27, chloroplastic

Chain of PsbS (Q9SMB4 67-274): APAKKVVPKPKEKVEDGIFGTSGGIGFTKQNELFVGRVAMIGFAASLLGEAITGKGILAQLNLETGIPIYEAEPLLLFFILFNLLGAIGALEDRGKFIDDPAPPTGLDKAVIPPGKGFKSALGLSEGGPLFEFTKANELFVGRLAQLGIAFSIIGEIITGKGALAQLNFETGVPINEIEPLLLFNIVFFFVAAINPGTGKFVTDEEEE

PsbS (from UniProt Q9SMB4 67-274) (natural protein)
decay of flash-induced chlorophyll fluorescence yield (QA^•− oxidation) at 15 °C, PSIIm-S/27 against PSIIm [1]: 10 fold

Psb27 (natural protein)
decay of flash-induced chlorophyll fluorescence yield (QA^•− oxidation) at 15 °C, PSIIm-S/27 against PSIIm [1]: 10 fold

CN(C)C(=O)Nc1ccc(Cl)c(Cl)c1 [DCMU]
flash-induced chlorophyll fluorescence decay [2]: presence of PsbS and/or Psb27 does not interfere with the DCMU binding
